Experiment: soluble on expression in E. coli; label from the status in PepcDB or PDB records

Sequence | soluble on expression in E. coli
MAHHHHHHMAYRVQKTTPAVVDNGTSSDGDEAQRASHKTAKTSSPSPIPKPARRKAPIADSDSDDESATRPAAKTTSPKFALKKAAVDSDSSDEDEPVPKNSSAGKRPAPRAEEAPAQRAARTESEGAARRTPHHLNEDGTFRRFQRIDPAKVTFDADALRDNRPGREHLVLRQNQEMMRTKGKGFNKLKQKNKGKFYGAGVDLSVRAYQFPDSDDE | soluble
MAHHHHHHMCHLCDVPVITPDKGVIQSGCGLHPKKTLGNGGAGGVHPGKNTTQETGFPTTGGPNNQHIHLRLCDLVLPRVEYNILPQIFRGVNRDLRHSWSILGGQCGTVKVRRVSLQHAVGATRLHVSVQETAPPFPLHGVTPPLHPLCGAHKLDGQFTDTAGQRTTRPLYTSHTRRIPTAFSLFYSPFFCVPSSNRAPSSSALHVPLTRRWQKGRRRLGTSHARTPRPHSPK | not soluble
MAHHHHHHMCSVPISCSSTHTHTPHSLIVMSAPKKVALVTGANRGIGFATARRLGELGFKVLLGARDAKRGEEAVDTLRNDKLDVDLLLMTPTEHTSVEAAVQKVEADYKRLDVLINNAALMDFDNKVFPLNIQRMRDEFEINFFATVDITNSFLPLMLRSSEAPRLVFVSTPLGTHETVDRPQNKYAHPNLTAYKCTKSAVNMYAHNLAKYLENYAEEAGGSAASAKVNCCYPGYVQTDMCFNSTEAHFTPYEGAETSVWLATLPADGPTGGFYHRAQKLPW | soluble
MAHHHHHHMDATELKNKGNEEFSAGRYVEAVNYFSKAIQLDEQNSVLYSNRSACFAAMQKYKDALDDADKCISIKPNWAKGYVRRGAALHGMRRYDDAIAAYEKGLKVDPSNSGCAQGVKDVQVAKAREARDPIARVFTPEAFRKIQENPKLSLLMLQPDYVKMVDTVIRDPSQGRLYMEDQRFALTLMYLSGMKIPNDGDGEEEERPSAKAAETAKPKEEKPLTDNEKEALALKEEGNKLYLSKKFEEALTKYQEAQVKDPNNTLYILNVSAVYFEQGDYDKCIAECEHGIEHGRENHCDYTIIAKLMTRNALCLQRQRKYEAAIDLYKRALVEWRNPDTLKKLTECEKEHQKAVEEAYIDPEIAKQKKDEGNQYFKEDKFPEAVAAYTEAIKRNPAEHTSYSNRAAAYIKLGAFNDALKDAEKCIELKPDFVKGYARKGHAYFWTKQYNRALQAYDEGLKVDPSNADCKDGRYRTIMKIQEMASGQSADGDEAARRAMDDPEIAAIMQDSYMQLVLKEMQNDPTRIQEYMKDSGISSKINKLISAGIIRFGQ | soluble
MAHHHHHHMDGQSSSPAEPASGSVALLYDYTTANDAPVEVHRAAAGRLACSYRAECLAIENGFGHLMPPCLGTSQSPTRILVATDSLSAIEAFRCPLAMRDRVTEAILIMPLSLVKRGRPVEFIFSPSHCGIPRNEATDEEATISISLPQEGIPIWHVDFLTAVKRLCWKEFQEEAEGAYTARQAFVGVARTPFLISSQK | not soluble
MAHHHHHHMDKYGDRKLQEGIYKLNNKKIKGYIPFQSASSIIPKQIRDKGIIEVMKELEKREEELNEKTKNDQEKHKVNKMNLFKSNSMNVKRKHVFSSFKIPRKI | soluble
MAHHHHHHMDSASGDGGDGAPASAERHSLKPLRWIEEVRDASQPNAVFLNVYDVRGSSTLLYSVGWGVHHVGVQVYGKEYQYGHRPIGKGIGSVKPHQSPPHTYREQFFLGQTQLSASEVEKLVVAFSDKVEWLGSNYHLVKHNCIDFARAFCEALLPPAVRVEQARRAEEAGLSQKMHMVEVEVDGMRHSVPVLIPHHVDRLARYAAHYLPKSSMQRFDRLESSFFSMSEVPQERGQPTAADPDTNRSTTPTPQPHTRTSH | not soluble
MAHHHHHHMEALFYDHAVASTATRQADLRQALQAFLADAASRSAVQLIALFVHIPVPSTVSVASHTASGSRTSSRTSSSREGGSAAARHAATGKAASAASPSPPAASRRRCNAAKLAWCAWEADRRLRQAAEDASEMNKWLAHDDLSASRKAGAGIARSYCRGAFVVAVAFLAPCTRDDIVVYESWQRCTEMCAEASAADVARGSASRTTRMLSPLRHARLIALSLGAPSLLLSWAERPTRCHLDSLLLPHQSLLVDLSWWVATASGSAGTVSDAAAGSRVSNSVLRDIFISDVQRSLKLPKGDSRCAVWISYATLLESLHPQVMGRIDGADGDGVSVDMRVAGSASRRKRGRNTLCGEFSGVDEQAFMMTYARIRHLLSSLNASQAGAVGHTRFLRVVLSYGGPSSALRRQLVHTCSRTEHGVTAVDAALLRTRSLVDVHALFGVLAGQDTVNVYSEAAAFVRTARRRASAGEAAQQRHQRIAVQSARVEVTSSPSSGPPGTEHEGVDSGAGNLCHNAFVERGARALARRLRLWERKRLGKRGKRGVHVRPRDKAARRPMKRGHAGTNDADSERVLVHAVERASRAAATPKTGNKRRAEPLASVDGRPSASATRALLPPQKQRRTDAVAVSPTLATDTALRWSEDVAGSG | not soluble
MAHHHHHHMEEEKAGSSELVLAQESAWDKFGSKLKDMPFLNNFFENPILGKLFGETELAAALREMKMYDQNFKLSELMYLFEFVISKHIVESYLIGDEETLRVHCGQSAFNSLNASINERKKKKVYLDTNVLIYKNHELKGAQRMEESSPWFIFTFHTQQINCLKNANDEIIEGNIDDIREVVYTIALSKHPEPEREGLLYPYIVREFAIIGNTPSW | soluble
MAHHHHHHMEEQVDLEKALAVAIKAAQSAGNIMLEFYQLRREDTAAKMMRLLKEGGSHTTGELAASPKPTPVDLLDIKTKSSSTDLVTHYDKLCDETIMKILQRFNAKVEDEKRNEPSEAFSFQFITEELTPDTPLTDEPTWIVDPIDGTMSFVHGGCDCCISIGLAIKKQTVLAVVYCPFLSIVQHSVEDLRSTSAVAGELYTAIRGKGTFLNGQPIRVSADALPNTALVAFNYPMGARLSAAEIPSDSAQVGVLKRQKHRKVVEAAGHIREQLAMHPVQGIRSYGSCALILAQVAAGRIDLYMEPAGMVWDVCAGSLLITEAGGVVKNMWGGDFGLEGTTTIIAAANETLADYGIQLCTQVNYGDYWKK | soluble
MAHHHHHHMEPHMTSLVLRRDLSLEVPKLLIGAVQPYQTLAGPALTTSFLHQPDLLPFQRTAFSHAAVAPLYFHTLLHTLAEFAETPRAVQYSAVKLRHAPKADFWDSVGTLNCFYYSAHAPYGAPVEASVLDQHPAMGAVELVRPGHRMESDVKLTLFNDSHQPIASMLMTGPNGAPRETDDDAVESSQGTSSTSPHARTAFPYVAPPTKETTSASDCLSAVMIGGTRVYGGLYGDLMPMESGGGFGQRACYRVEDAAAYSPSLDARSRVSGTEAAAGERTASSSASTVMPPWVLYDCVQRFFLRLHRSGIFGGDAAVAPTEGWRVSAHHVVQTEDAVFGVPVEVVCAVPRVYPSYRLPPWRHRLGLPAIPNGAPPCVCLRCETRQGGRLVSTGVYFFNRW | soluble
MAHHHHHHMEQDAASRPVTESEQTTTSYHGHTVSFLLLLYRRLEFESSGSTRPKAMLLRSDDTSPWPSPAPLSPVPSRPSSCRSSFSSLSVTSCISIISLLISSKTAVSRFTSSSWRLRRSSSCCCNSCAVAILLPLRAHGTTQPTGKKKKKKKEREKRKTQDAHHN | not soluble
MAHHHHHHMESGKNAHRLNRIFRKPKTMVAPRAWRPAADGEGERQQPFSGVSLQRINAMISELSEEERTRALAQQDPPTVVQEELAKRAARFGLTIERADAGNNEKTASSEITPEVQAVFQRRMERFGQSAAEEAMQKRVARFGNAATSAEGPGVELKLSEADREAMQRRQSRFGG | soluble
MAHHHHHHMESPRQEPLPQQPSELNTNAAAVLSTTTTESYVYTCRMCRHVLFMHHEILPHYPEPVGSGNKGFKYRGGGHASSQQQQGLHAAQEGGDVCTSYFLDPDISPWVAEESREVHQVSGGLDVMPDTIYCPNRKCNAKIGTQSWVGSQCSCGAWVTPAFKIHSRVVDKMPVAQ | not soluble
MAHHHHHHMESQKERGNAAYREKRYRDAINAYTAAIELDLTNVRMVATLRANQAAAKMELKEYSSALLDCEFAIQNGVNSAKLYARRARIHEALNNYDDALRDIQKASEMDGSYQREFQRTKASSKKAMRKDYYKILDLPPNESDDAQIKRAYKKACLRWHPDKWANAGPEEKTHAEKMFKDVGEAFSILSDAKKKRMYDNGMIDNAVEGAGESGFSGFPGQDEALMEMMNRMFFTGGGMSGGFGFNGFPQGRRQQYQQSYTFQFF | not soluble
MAHHHHHHMETVDALDYSELVALNQEEALRRVLASYPRIGLQATELGRARRIVQRALYHKRAGDAVFLAYTSNLISSGLRDTFACLARDRLIDGFISTAGGIEEDAIKCLGKTLVGQFSLDGRELRRCGVNRTGNLLVPNDNYCHFENFFMPVLKHLHELQRESRWETMTAPSEMIAAIGAALGCKHPETCSDSLLYWCYRNNIPVFSPALTDGSIGDMIYFYNYSKKGLVLDPIVDVVRLRELGCRNRRCDDSQGGNRSQNNNGRTTCIVLGGGLPKHHLLQNVRADTVVYVSTGLEVDASPSSCNVAEDRANGVLLDNCEVVRVHGDASFVFPLLLCKAETSADTHKDVAA | soluble
MAHHHHHHMEVVVKSIGTAFTVAVIPVLKDNYSYVIHDKATNTLAAVDVSVDIDPVIDYVRRLGGVDRTTDLRTILSTHKHHDHSGGNISLQKKLNAMGAFRIIGGANEPIPGVTEKVREGDHFSIGELKVDVLDAPCHTSGHVLYKVYHPQKAENGIALFTGDTMFVGGIGAFFEGDAVLMCSALRKVYNLNGACESSACDATDVQKRDNHTYIFPGHEYTVNFLRFSRDALPASHPDVSFVEAQLRRYTESVAGNVPTVPSTLAEEKRQNLFLRTCDEAFVRVMNKGETAVKLMDFLYNTCP | soluble
MAHHHHHHMFGTTRVWRNTFLTKSVATPPISVIRTGPRWWADPERMVRQKLMYFTLGVDQLPLRRTAVIQKDLHRFHMCKPPPRIGDTTGYKRSRAAQLTTWYRRIQYQEYHLQHLFTRHVWGLVRAYPGNTTKIQGKADDGYVGYDSVPYHRYNRTPLPFPAREIYGRRE | not soluble
MAHHHHHHMFLFRHSAEPMEAEEERHERVDSTTEPHNAATAAARKRRTSADVANGEVSREASGVAESFDETGGAPHTPREGTAPPPDVHDMLEHQRPRDEDDAEADMAAAALAASAPAPFHGVPTLPMPRTCDENPQAEADGNSTQRHRSYSHTSRFAAPSPRSTSGISRGRSYSLSGLSAAELADVHEQQYRRCTSIVKSARCISARRASSVNGVVGVIDDLYTLASRRSSAMTEAERVAVERMIENEYRRQEAAERSAQFALARESIIVNEELAREKATYVRRMHLNEELHARLAKSSRTRQERMTAAAQRRQEIEQERLRVLYGSMMEKDTRYHFRNPYEMMAAQRRYSIEMRSPAAIAPQRRASSPSTRASGNAQMSPRSAEGVANCTTEDRCTSSPATRRRSSTPSIAKSKPRQCLPLDAWKKPVPPRKDSCRSDISAEHRCRSPTDWRATAVLEHPRQWH | not soluble

— the DeepSol protein solubility set
